Like-named read-outs stand apart in the source and are kept apart here.
T1: HIN1 1-267 (N-terminal, MYB/SANT domains) (Arabidopsis thaliana, UniProt F4J686 1-267)
T1 sequence: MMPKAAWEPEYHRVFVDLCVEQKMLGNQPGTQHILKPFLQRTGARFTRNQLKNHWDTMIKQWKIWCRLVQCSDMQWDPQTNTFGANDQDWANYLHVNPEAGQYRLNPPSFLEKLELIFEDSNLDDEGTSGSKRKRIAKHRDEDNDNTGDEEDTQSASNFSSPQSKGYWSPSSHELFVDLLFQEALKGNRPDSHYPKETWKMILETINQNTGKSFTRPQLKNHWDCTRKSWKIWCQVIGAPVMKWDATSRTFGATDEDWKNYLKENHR

T2: RZ-1C (Arabidopsis thaliana, UniProt Q8RWN5 1-310)
T2 sequence: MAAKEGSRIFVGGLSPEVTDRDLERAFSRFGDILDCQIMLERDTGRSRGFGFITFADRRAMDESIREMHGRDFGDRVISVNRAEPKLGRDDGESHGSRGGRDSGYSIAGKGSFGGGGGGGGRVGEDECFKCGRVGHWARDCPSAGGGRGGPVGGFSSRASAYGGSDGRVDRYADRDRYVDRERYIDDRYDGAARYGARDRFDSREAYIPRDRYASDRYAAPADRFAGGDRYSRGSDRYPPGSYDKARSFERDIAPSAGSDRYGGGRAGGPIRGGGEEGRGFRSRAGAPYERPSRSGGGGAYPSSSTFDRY


How the values were obtained:
Assay in all cases: EMSA
[1] = target: T1, HIN1 1-267 (N-terminal, MYB/SANT …)
RZ-1C [2] = target: T2, RZ-1C
[3] = target: T1, HIN1 1-267 (N-terminal, MYB/SANT …); remark: listed apart in the source
RZ-1C [4] = target: T2, RZ-1C; remark: listed apart in the source

Binder	binding result [1]	binding result (RZ-1C [2])	binding result [3]	binding result (RZ-1C [4])
UUUCGAGAAGAAGAAGACAUC (ssRNA) [M probe (GAA repeat, AT1G50740 intron 1 flank)]	binds	binds		
UUUCGACUUCUUCUUGACAUC (ssRNA) [U probe (GAA repeat to CUU)]	no binding	no binding		
UUUCGACUUGAAGAUCUCAUC (ssRNA) [M2 probe (motif reduced to GAAGA)]			no binding	no binding

Source: article PMC6825267
